Reference: patent US10287572B2, “Protein scaffolds and methods of use” (REGENTS OF THE UNIVERSITY OF MINNESOTA, priority 2013, dated 2019)

How the values were obtained:
[1] = Circular dichroism thermal denaturation; format: physicochemical; conditions: ellipticity at 218 nm, 24-98 °C, PBS
Experimental: Purified tGp2 was lyophilized and resuspended in PBS to a concentration of 0.3-0.9 mg mL^−1. Ellipticity was measured from 260 to 200 nm on a Jasco J-815 spectrophotometer (Jasco, Inc., Easton, Md.) in a quartz cuvette with 1 mm path length. Thermal denaturation was carried out by measuring the ellipticity at 218 nm from 24° C. to 98° C. and Tm was calculated from a standard two-state unfolding curve.

EGFR = target: T1, EGFR (Homo sapiens, UniProt P00533); test: In vitro cell labeling with tGp2-EGFR-His6, flow cytometry; format: cell-based
T1 construct: endogenous in cells; host or cells: A431, MDA-MB-231, MCF7
Experimental: Cells were pelleted, washed with PBSA, and labeled with fluorescein-conjugated rabbit anti-His6 antibody for 15 minutes at 4° C. Cells were pelleted and washed, and analyzed on an Accuri C6 flow cytometer (BD Biosciences, San Jose, Calif.).
Cell lines were labeled as above with biotinylated tGp2-EGFR-His6. Except, Alexa Fluor 488-conjugated streptavidin was used as the secondary label.
Additionally, ligand specificity was examined through target blocking. […] Cells were pelleted, washed, and labeled with Alexa Fluor 488-conjugated streptavidin for 15 minutes. After washing, flow cytometry was used to compare fluorescence of blocked and unblocked samples.

soluble EGFR ectodomain = soluble EGFR ectodomain (Homo sapiens, UniProt P00533); test: Yeast-displayed Gp2 binding to soluble EGFR ectodomain; conditions: 1 nM soluble EGFR ectodomain
Experimental: The plasmid containing the clone of interest was transformed into yeast using the Frozen EZ Transformation Kit II (Zymo Research Corp., Irvine, Calif.), plated on SD medium plates and then grown directly in SG medium at 30° C. for at least 12 hours to induce protein expression. Cells were pelleted and washed with PBSA (phosphate buffered saline with 0.1% bovine serum albumin) and resuspended in PBSA containing biotin conjugated target over a range of concentrations. […] The samples were incubated at 22° C. for an appropriate amount of time to reach 90% of the approach to equilibrium. After incubation, cells were washed and labeled with mouse anti-c-myc antibody (clone 9E10) for 10-15 minutes, washed, and labeled with fluorescein-conjugated goat anti-mouse antibody and Alexa Fluor 647-conjugated streptavidin for 10-15 minutes. Yeast were washed and Alexa Fluor 647 fluorescence was analyzed on a FACSCalibur flow cytometer (BD Biosciences, San Jose, Calif.). The relative fraction bound for cells displaying tGp2 was determined by subtracting background fluorescence of an unlabeled control and normalizing to the maximum saturated signal at high concentrations. The equilibrium dissociation constant, KD, was identified as the concentration where half-maximal binding occurred.

rabbit IgG = test: Equilibrium competition titration of soluble tGp2, rabbit IgG; format: binding; conditions: soluble protein, read-out: Affinity (KD) of soluble tGp2
Experimental: Soluble affinity of select tGp2 proteins was determined using equilibrium competition titration, as described previously (Lipovsek et al., J Mol Biol, 2007, 368:1024-1041). Briefly, the soluble tGp2 clone was allowed sufficient time to reach 90% equilibrium with biotin-conjugated target over a range of tGp2 concentrations. Yeast cells displaying the same tGp2 clone and yeast cells harboring no plasmid (to aid in pelleting) were added to the solution, and allowed to equilibrate for six days. Cells were washed, labeled for target binding and analyzed with flow cytometry, as above.

GaE 2.3.3: EGFR-specific tGp2 scaffold; loop 1 SRGDSYW (SEQ ID NO:2), loop 2 PMYHIYY (SEQ ID NO:3), frame mutation W45R (KFWATVSRGDSYWFEVPVYAETLDEALELAERQYPMYHIYYVTRVRP)
Melting temperature (Tm) by circular dichroism [1]: 81 °C | Binding to human cancer cell lines (EGFR; 0 or 1 μM Gp2 anti-EGFR, flow cytometry): binds to human cancer cell lines in an EGFR-dependent manner | Blocking of labeled Gp2 binding by unlabeled Gp2 (EGFR; A431 cells, 1 μM unlabeled Gp2): blocks binding of labeled Gp2 to A431 cells | Kd (EGFR; A431 cells, His tag, anti-His6-FITC, flow cytometry, read-out: Affinity for A431 cells (average of two experiments)): 0.05 µM | Binding of soluble EGFR ectodomain by displaying yeast (soluble EGFR ectodomain): effectively bind

GaR 3.2.3: Rabbit IgG-binding tGp2 clone; loop 1 HSVHGY (SEQ ID NO:44), loop 2 GNALGY (SEQ ID NO:45), E44F, W45G (KFWATVHSVHGYFEVPVYAETLDEALELAFGQYGNALGYVTRVRP)
Kd (rabbit IgG): 0.001 µM | Melting temperature (Tm) by circular dichroism [1]: 80 °C

tGp2 wild type: Truncated gene protein 2 of T7 phage, 5.2 kDa, 45 amino acids, SEQ ID NO:1 (KFWATVESSEHSFEVPVYAETLDEALELAEWQYYPAGFEVTRVRP; Enterobacteria phage T7)
Melting temperature (Tm) by circular dichroism [1]: 67 °C
